“Also recorded” adds a separate entry of the source. No end group written: not given here.

In test [1] the target is T1, CTR (Homo sapiens, UniProt P30988).
T1 construct: cMyc; expressed in transfected cells
T1 sequence (P30988 25-474): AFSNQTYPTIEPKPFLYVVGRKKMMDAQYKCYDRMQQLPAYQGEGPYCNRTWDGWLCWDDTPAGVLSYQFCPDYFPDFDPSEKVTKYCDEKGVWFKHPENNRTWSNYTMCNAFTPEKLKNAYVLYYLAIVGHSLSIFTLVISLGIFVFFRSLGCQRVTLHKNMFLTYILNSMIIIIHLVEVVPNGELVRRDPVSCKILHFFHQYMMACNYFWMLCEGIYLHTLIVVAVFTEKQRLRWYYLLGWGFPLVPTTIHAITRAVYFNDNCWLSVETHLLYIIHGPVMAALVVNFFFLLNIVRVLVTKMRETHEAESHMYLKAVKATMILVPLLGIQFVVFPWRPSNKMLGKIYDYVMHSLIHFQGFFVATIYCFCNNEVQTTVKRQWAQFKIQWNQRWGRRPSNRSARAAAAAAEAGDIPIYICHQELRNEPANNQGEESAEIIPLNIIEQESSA
The experiment in a line: Stimulation of cAMP production (adenylyl cyclase activity) in GBM cell line A172. Type of test: cell-based. As to conditions: 10^−6M sCT (8-32). An excerpt: FIG. 6. […]. (C) is an immunoblot of a crude membrane preparation from the cell line A172 and probed with the anti-CTR antibody MCA2191.
(§1) The glioblastoma cell line A172 was maintained in DMEM/10% FBS.
FIG. 6 illustrates the concentration response curves and immunoblot for the GBM cell line A172. […]. The stimulation was inhibited by the antagonist 10^−6M sCT (8-32). In immunoblots (C) of whole cell lysates of A172 probed with the anti-CTR antibody MCA2191, there is a minor band that runs with a mobility of ˜70 kD and a major band at 52 kD.

Test [2] addresses T1, CTR. The experiment in a line: Inhibition of phosphorylation of ERK1/2 in GBM cell line A172. Type of test: cell-based. To be noted: 10^−6M sCT (8-32).
Description: FIG. 6. […] (C) is an immunoblot of a crude membrane preparation from the cell line A172 and probed with the anti-CTR antibody MCA2191.
as §1
FIG. 6 illustrates the concentration response curves and immunoblot for the GBM cell line A172.

Test [3] deals with human calcitonin receptor, endogenous (GBM tissue, A172 glioblastoma cell line) (human) (UniProt P30988). The experiment in a line: cell-based or functional assay. To be noted: scale: log EC50.
Another test concerns T47D. As to conditions: cancer cell lines such as T47D; cited from earlier work.
The next test has as its system breast cancer xenograft. As to conditions: mouse xenograft models of breast cancer; administration of calcitonin; cited from earlier work.

For the substance “sCT (8-32): antagonist (also called inverse agonist) of CTR (VLGKLSQELHKLQTYPRTNTGSGTP)”, in the test with CTR [1], the “effect on the hCT stimulation of adenylyl cyclase activity” value is “inhibited”. In addition, the “effect on the hCT inhibition of ERK1/2 phosphorylation” value with CTR [2] was “inhibited; also recorded: antagonised”.
As for “human CT (from UniProt P01258 85-116) (ligand)”, in test [3], the log EC50, inhibition of phosphorylation of ERK1/2 in the GBM cell line A172 is -10.5 and the log EC50, stimulation of adenylyl cyclase activity (cAMP production) in the GBM cell line A172 was -9.9.
As for “calcitonin (CGNLSTCMLGTYTQDFNKFHTFPQTAIGVGAP; ends and bridges not checked; cysteine pairing not given here; UniProt P01258 85-116, looked up) [calcitonin (CT), calcitonin receptor agonist]”, the cell proliferation entry in the test on T47D is reported as “inhibits cell proliferation”. Further, the tumor volume result in the test with breast cancer xenograft is recorded as “significantly reduced”.

The values are drawn from patent publication US20130230453A1, “DIAGNOSIS AND TREATMENT OF BRAIN TUMORS” (Welcome Receptor Antibodies Pty Ltd, priority 2010, published 2013).
